One substance from PMC4482071 can be followed below.

In the assay the target is Aspergillus nidulans (An) Rpf2 (Aspergillus nidulans). The experiment in a line: SEC; size exclusion chromatography of the An Rpf2-Rrs1 complex in solution; conditions not given (preparation in ref. 22).

The substance “Aspergillus nidulans (An) Rrs1 (natural protein)” yielded a stoichiometry N of 1.
